Data as given in PMC7593955 (2020).

T1: adrenodoxin reductase (ADR) (Homo sapiens, UniProt P22570)
T1 chain: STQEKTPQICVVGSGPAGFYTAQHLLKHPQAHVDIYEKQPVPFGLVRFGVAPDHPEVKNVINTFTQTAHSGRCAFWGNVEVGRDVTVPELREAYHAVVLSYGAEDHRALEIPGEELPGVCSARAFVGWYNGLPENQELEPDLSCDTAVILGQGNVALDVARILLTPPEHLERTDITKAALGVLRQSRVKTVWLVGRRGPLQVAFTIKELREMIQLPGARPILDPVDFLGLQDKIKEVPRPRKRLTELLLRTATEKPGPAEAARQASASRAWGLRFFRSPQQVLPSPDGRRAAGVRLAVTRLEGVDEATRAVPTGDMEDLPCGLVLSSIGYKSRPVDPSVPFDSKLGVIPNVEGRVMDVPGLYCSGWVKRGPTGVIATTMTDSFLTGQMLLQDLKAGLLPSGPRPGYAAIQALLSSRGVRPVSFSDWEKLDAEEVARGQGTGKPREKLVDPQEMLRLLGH

B1: ferrochelatase (FECH) (protein)
chain: GAKPQVQPQKRKPKTGILMLNMGGPETLGDVHDFLLRLFLDRDLMTLPIQNKLAPFIAKRRTPKIQEQYRRIGGGSPIKIWTSKQGEGMVKLLDELSPNTAPHKYYIGFRYVHPLTEEAIEEMERDGLERAIAFTQYPQYSCSTTGSSLNAIYRYYNQVGRKPTMKWSTIDRWPTHHLLIQCFADHILKELDHFPLEKRSEVVILFSAHSLPMSVVNRGDPYPQEVSATVQKVMERLEYCNPYRLVWQSKVGPMPWLGPQTDESIKGLCERGRKNILLVPIAFTSDHIETLYELDIEYSQVLAKECGVENIRRAESLNGNPLFSKALADLVHSHIQSNELCSKQLTLSCPLCVNPVCRETKSFFTSQQL

Assays:
Assay in all cases: SPR
[1] = target: Adrenodoxin reductase (Homo sapiens) (UniProt P22570); conditions: cited from earlier work
[2] = target: Adrenodoxin reductase (Homo sapiens) (UniProt P22570); conditions: cited from earlier work; remark: listed apart in the source
[3] = target: T1, adrenodoxin reductase (ADR)
ferrochelatase (FECH) = target: B1
SPR = target: the molecule itself

Kd [3] [µM] | Kd (ferrochelatase (FECH)) [nM] | Molecule | Kd [1] [µM] | Kd [2] [nM] | Kd (SPR) [nM]
 |  | Ferrochelatase (from UniProt P22830) | 13 | 2000 | 
13.7 | 560 | ferrochelatase (FECH) (protein, 100 uM 5-nitroisatin) GAKPQVQPQKRKPKTGILMLNMGGPETLGDVHDFLLRLFLDRDLMTLPIQNKLAPFIAKRRTPKIQEQYRRIGGGSPIKIWTSKQGEGMVKLLDELSPNTAPHKYYIGFRYVHPLTEEAIEEMERDGLERAIAFTQYPQYSCSTTGSSLNAIYRYYNQVGRKPTMKWSTIDRWPTHHLLIQCFADHILKELDHFPLEKRSEVVILFSAHSLPMSVVNRGDPYPQEVSATVQKVMERLEYCNPYRLVWQSKVGPMPWLGPQTDESIKGLCERGRKNILLVPIAFTSDHIETLYELDIEYSQVLAKECGVENIRRAESLNGNPLFSKALADLVHSHIQSNELCSKQLTLSCPLCVNPVCRETKSFFTSQQL |  |  | 
14.7 | 580 | ferrochelatase (FECH) (protein, 100 uM 5,7-dichloroisatin) GAKPQVQPQKRKPKTGILMLNMGGPETLGDVHDFLLRLFLDRDLMTLPIQNKLAPFIAKRRTPKIQEQYRRIGGGSPIKIWTSKQGEGMVKLLDELSPNTAPHKYYIGFRYVHPLTEEAIEEMERDGLERAIAFTQYPQYSCSTTGSSLNAIYRYYNQVGRKPTMKWSTIDRWPTHHLLIQCFADHILKELDHFPLEKRSEVVILFSAHSLPMSVVNRGDPYPQEVSATVQKVMERLEYCNPYRLVWQSKVGPMPWLGPQTDESIKGLCERGRKNILLVPIAFTSDHIETLYELDIEYSQVLAKECGVENIRRAESLNGNPLFSKALADLVHSHIQSNELCSKQLTLSCPLCVNPVCRETKSFFTSQQL |  |  | 
15.5 | 530 | ferrochelatase (FECH) (protein, 100 uM 5-bromoisatin) GAKPQVQPQKRKPKTGILMLNMGGPETLGDVHDFLLRLFLDRDLMTLPIQNKLAPFIAKRRTPKIQEQYRRIGGGSPIKIWTSKQGEGMVKLLDELSPNTAPHKYYIGFRYVHPLTEEAIEEMERDGLERAIAFTQYPQYSCSTTGSSLNAIYRYYNQVGRKPTMKWSTIDRWPTHHLLIQCFADHILKELDHFPLEKRSEVVILFSAHSLPMSVVNRGDPYPQEVSATVQKVMERLEYCNPYRLVWQSKVGPMPWLGPQTDESIKGLCERGRKNILLVPIAFTSDHIETLYELDIEYSQVLAKECGVENIRRAESLNGNPLFSKALADLVHSHIQSNELCSKQLTLSCPLCVNPVCRETKSFFTSQQL |  |  | 
13.8 | 610 | ferrochelatase (FECH) (protein, 100 uM 5-fluoroisatin) GAKPQVQPQKRKPKTGILMLNMGGPETLGDVHDFLLRLFLDRDLMTLPIQNKLAPFIAKRRTPKIQEQYRRIGGGSPIKIWTSKQGEGMVKLLDELSPNTAPHKYYIGFRYVHPLTEEAIEEMERDGLERAIAFTQYPQYSCSTTGSSLNAIYRYYNQVGRKPTMKWSTIDRWPTHHLLIQCFADHILKELDHFPLEKRSEVVILFSAHSLPMSVVNRGDPYPQEVSATVQKVMERLEYCNPYRLVWQSKVGPMPWLGPQTDESIKGLCERGRKNILLVPIAFTSDHIETLYELDIEYSQVLAKECGVENIRRAESLNGNPLFSKALADLVHSHIQSNELCSKQLTLSCPLCVNPVCRETKSFFTSQQL |  |  | 
 | ~500 | ferrochelatase (FECH) (protein, NHS/EDC-treated immobilized FECH) GAKPQVQPQKRKPKTGILMLNMGGPETLGDVHDFLLRLFLDRDLMTLPIQNKLAPFIAKRRTPKIQEQYRRIGGGSPIKIWTSKQGEGMVKLLDELSPNTAPHKYYIGFRYVHPLTEEAIEEMERDGLERAIAFTQYPQYSCSTTGSSLNAIYRYYNQVGRKPTMKWSTIDRWPTHHLLIQCFADHILKELDHFPLEKRSEVVILFSAHSLPMSVVNRGDPYPQEVSATVQKVMERLEYCNPYRLVWQSKVGPMPWLGPQTDESIKGLCERGRKNILLVPIAFTSDHIETLYELDIEYSQVLAKECGVENIRRAESLNGNPLFSKALADLVHSHIQSNELCSKQLTLSCPLCVNPVCRETKSFFTSQQL |  |  | 
14.1 | 540 | ferrochelatase (FECH) (protein, 100 uM 5-iodoisatin) GAKPQVQPQKRKPKTGILMLNMGGPETLGDVHDFLLRLFLDRDLMTLPIQNKLAPFIAKRRTPKIQEQYRRIGGGSPIKIWTSKQGEGMVKLLDELSPNTAPHKYYIGFRYVHPLTEEAIEEMERDGLERAIAFTQYPQYSCSTTGSSLNAIYRYYNQVGRKPTMKWSTIDRWPTHHLLIQCFADHILKELDHFPLEKRSEVVILFSAHSLPMSVVNRGDPYPQEVSATVQKVMERLEYCNPYRLVWQSKVGPMPWLGPQTDESIKGLCERGRKNILLVPIAFTSDHIETLYELDIEYSQVLAKECGVENIRRAESLNGNPLFSKALADLVHSHIQSNELCSKQLTLSCPLCVNPVCRETKSFFTSQQL |  |  | 
14.3 | 570 | ferrochelatase (FECH) (protein, 100 uM 5-methylisatin) GAKPQVQPQKRKPKTGILMLNMGGPETLGDVHDFLLRLFLDRDLMTLPIQNKLAPFIAKRRTPKIQEQYRRIGGGSPIKIWTSKQGEGMVKLLDELSPNTAPHKYYIGFRYVHPLTEEAIEEMERDGLERAIAFTQYPQYSCSTTGSSLNAIYRYYNQVGRKPTMKWSTIDRWPTHHLLIQCFADHILKELDHFPLEKRSEVVILFSAHSLPMSVVNRGDPYPQEVSATVQKVMERLEYCNPYRLVWQSKVGPMPWLGPQTDESIKGLCERGRKNILLVPIAFTSDHIETLYELDIEYSQVLAKECGVENIRRAESLNGNPLFSKALADLVHSHIQSNELCSKQLTLSCPLCVNPVCRETKSFFTSQQL |  |  | 
15.2 |  | B1 |  |  | 550
3.4 | 600 | ferrochelatase (FECH) (protein, 100 uM isatin) GAKPQVQPQKRKPKTGILMLNMGGPETLGDVHDFLLRLFLDRDLMTLPIQNKLAPFIAKRRTPKIQEQYRRIGGGSPIKIWTSKQGEGMVKLLDELSPNTAPHKYYIGFRYVHPLTEEAIEEMERDGLERAIAFTQYPQYSCSTTGSSLNAIYRYYNQVGRKPTMKWSTIDRWPTHHLLIQCFADHILKELDHFPLEKRSEVVILFSAHSLPMSVVNRGDPYPQEVSATVQKVMERLEYCNPYRLVWQSKVGPMPWLGPQTDESIKGLCERGRKNILLVPIAFTSDHIETLYELDIEYSQVLAKECGVENIRRAESLNGNPLFSKALADLVHSHIQSNELCSKQLTLSCPLCVNPVCRETKSFFTSQQL |  |  | 
